According to publication PMC3942289, “Characterization of Ten Heterotetrameric NDP-Dependent Acyl-CoA Synthetases of the Hyperthermophilic Archaeon Pyrococcus furiosus” (Archaea, 2014):

Key:
[1] = biological target: T1, ACS2-G (Pyrococcus furiosus, UniProt E7FHP1+Q8U3D6); conditions: reverse reaction; 20 mM acid, 1 mM ATP or GTP, 0.5 mM CoA, 2 mM MgCl2, pH 7.0, 80°C
T1 construct: gene acdAII

[2] = biological target: T2, ACS3-G (Pyrococcus furiosus, UniProt E7FHP1+Q8U461); conditions: reverse reaction; 20 mM acid, 1 mM ATP or GTP, 0.5 mM CoA, 2 mM MgCl2, pH 7.0, 80°C
T2 construct: gene PF0233
T2 sequence (Q8U461 1-465): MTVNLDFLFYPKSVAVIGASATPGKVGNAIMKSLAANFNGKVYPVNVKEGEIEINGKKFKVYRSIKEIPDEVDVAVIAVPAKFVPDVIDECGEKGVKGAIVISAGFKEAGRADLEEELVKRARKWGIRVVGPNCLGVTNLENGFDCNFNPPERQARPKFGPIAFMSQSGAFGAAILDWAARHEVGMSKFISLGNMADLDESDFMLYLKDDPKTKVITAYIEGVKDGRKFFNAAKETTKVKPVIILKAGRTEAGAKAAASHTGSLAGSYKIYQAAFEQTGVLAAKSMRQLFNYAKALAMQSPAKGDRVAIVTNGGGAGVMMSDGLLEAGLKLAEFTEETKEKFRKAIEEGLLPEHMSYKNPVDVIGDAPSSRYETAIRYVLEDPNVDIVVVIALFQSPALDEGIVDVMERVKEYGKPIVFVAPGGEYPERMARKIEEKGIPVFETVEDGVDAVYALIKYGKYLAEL
T2 sequence (E7FHP1 whole entry): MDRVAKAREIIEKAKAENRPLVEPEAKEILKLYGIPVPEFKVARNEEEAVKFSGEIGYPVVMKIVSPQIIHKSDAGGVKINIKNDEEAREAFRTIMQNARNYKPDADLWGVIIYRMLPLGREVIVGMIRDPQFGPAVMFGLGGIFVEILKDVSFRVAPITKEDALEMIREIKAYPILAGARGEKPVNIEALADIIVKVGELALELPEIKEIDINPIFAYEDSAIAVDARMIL

[3] = biological target: T3, ACS4-G (Pyrococcus furiosus, UniProt E7FHP1+Q8U1W9); conditions: reverse reaction; 20 mM acid, 1 mM ATP or GTP, 0.5 mM CoA, 2 mM MgCl2, pH 7.0, 80°C
T3 construct: gene PF1085
T3 sequence (Q8U1W9 1-442): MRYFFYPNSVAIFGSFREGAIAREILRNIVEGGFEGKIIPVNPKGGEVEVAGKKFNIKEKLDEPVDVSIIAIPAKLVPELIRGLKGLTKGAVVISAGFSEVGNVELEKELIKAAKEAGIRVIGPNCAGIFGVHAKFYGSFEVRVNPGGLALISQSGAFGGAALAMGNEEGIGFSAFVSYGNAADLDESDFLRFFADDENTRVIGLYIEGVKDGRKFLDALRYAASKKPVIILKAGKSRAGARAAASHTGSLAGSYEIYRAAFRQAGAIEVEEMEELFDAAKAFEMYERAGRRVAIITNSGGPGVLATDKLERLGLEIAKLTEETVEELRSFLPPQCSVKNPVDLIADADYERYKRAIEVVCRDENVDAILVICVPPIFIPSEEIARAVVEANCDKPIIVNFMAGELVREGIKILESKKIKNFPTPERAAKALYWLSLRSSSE
T3 sequence (E7FHP1 whole entry): as the sequence (E7FHP1 whole entry) above

[4] = substrate: CC(C)CC(=O)SCCNC(=O)CCNC(=O)[C@H](O)C(C)(C)COP(=O)(O)OP(=O)(O)OC[C@H]1O[C@@H](n2cnc3c(N)ncnc32)[C@H](O)[C@@H]1OP(=O)(O)O; experiment: DTNB assay of released CoASH, 96-well; type: biochemical, Pyrococcus furiosus; conditions: forward reaction, 2 mM ADP, 10 mM K2HPO4, 2 mM MgCl2, pH 7.0, 80°C
Description: (§1) DTNB assay of released CoASH, 96-well on ACS5-A

[5] = substrate: CC(C)C(=O)SCCNC(=O)CCNC(=O)[C@H](O)C(C)(C)COP(=O)(O)OP(=O)(O)OC[C@H]1O[C@@H](n2cnc3c(N)ncnc32)[C@H](O)[C@@H]1OP(=O)(O)O; experiment: DTNB assay of released CoASH, 96-well; type: biochemical, Pyrococcus furiosus; conditions: forward reaction, 2 mM ADP, 10 mM K2HPO4, 2 mM MgCl2, pH 7.0, 80°C
Description: as §1

[6] = substrate: CC(=O)SCCNC(=O)CCNC(=O)[C@H](O)C(C)(C)COP(=O)(O)OP(=O)(O)OC[C@H]1O[C@@H](n2cnc3c(N)ncnc32)[C@H](O)[C@@H]1OP(=O)(O)O; experiment: DTNB assay of released CoASH, 96-well; type: biochemical, Pyrococcus furiosus; conditions: forward reaction, 2 mM ADP, 10 mM K2HPO4, 2 mM MgCl2, pH 7.0, 80°C
Description: as §1

T1 sequence (Q8U3D6 whole entry): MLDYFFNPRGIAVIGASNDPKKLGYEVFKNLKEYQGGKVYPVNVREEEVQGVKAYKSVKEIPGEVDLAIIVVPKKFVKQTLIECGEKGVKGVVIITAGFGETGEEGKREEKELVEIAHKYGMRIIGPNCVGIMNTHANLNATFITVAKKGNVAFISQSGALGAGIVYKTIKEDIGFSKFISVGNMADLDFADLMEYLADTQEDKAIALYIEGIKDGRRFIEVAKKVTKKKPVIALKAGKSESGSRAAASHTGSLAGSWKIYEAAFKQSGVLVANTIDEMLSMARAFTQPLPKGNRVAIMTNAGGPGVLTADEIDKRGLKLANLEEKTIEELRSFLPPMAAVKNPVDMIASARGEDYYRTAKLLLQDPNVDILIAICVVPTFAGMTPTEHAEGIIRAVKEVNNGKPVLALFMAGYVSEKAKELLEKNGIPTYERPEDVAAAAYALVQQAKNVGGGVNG
T1 sequence (E7FHP1 whole entry): as the sequence (E7FHP1 whole entry) above

Molecule: CSCCC(=O)O [3-methylthiopropionate]
- relative activity [1]: Surprisingly, ACS2 was also active with 3-methylthiopropionate

Molecule: O=C(O)CCC(=O)O [succinate]
- relative activity [2]: The only isoenzyme that showed activity with succinate was ACS3

Molecule: O=C(O)Cc1c[nH]cn1 [imidazole 4-acetate]
- relative activity [3]: ACS4 was the only isoenzyme that shows significant activity with imidazole 4-acetate

B1: ACS5-A (Pyrococcus furiosus DSM 3638) (protein)
chain 1: MINNLDIKEQLRSFFDPKAVAIIGATNKKGKVGNVIFENFKRNKERGIFKGNIYPVNPKLDEIDGYKVYHSVEELPDDTDLAVVAIPAPAVPETMRKIAEKGIKAVVIITGGFGELGEEGKRMEQEILEIARAHGIRVIGPNCVGVYVPDTGVDTVFLPEEKMDRPKSGPIAFVSQSGAFAAAMLDWAAMAGIGIGKMVSYGNKIDVDDADLMEYFAQDEQIKVMTFYIEGVKDGRRFMEVAKRVTKIKPIIALKSGRTEYGAKAASSHTGSLAGQDVIYDAVFKQTGIIRAEDFEHMFDLAKAFAKCKLPKGDRIGIITDGGGAGVMASDAVAKFGLKLAELSEETLRFLREKFPPHAVVGNPTDVVGDTDAERYRLALEAFTKDPNVDAILVIVLFQVPLLDEEEVIEIIADYAKKSDKPIVAVSMGGYKTDRYAKMLEEKGVPVYPTPERGVRALAGLVRYAEYLRKMGE
chain 2: MKGEALKIIEEVLAQGRTAMVEYEAKQVLKAYGLPVPEEKLAKTLDEALKYAEEIGYPVAMKLMSPQILHKSDAKVVMLNIKSPEELKKKWEEIHENARKYRPDAEIFGVLIAPMLKPGREVIIGVTEDPQFGHAIMFGLGGIFVEILKDVTFRIIPITEKDARKMITEIKAYPILAGARGEEPADIEAIVDMLLKVSKLVDDLKDYIKEMDLNPVFVYRKGEGAVVVDARIILKG
notes: alpha (pET24a) and beta-A (pET21b) coexpressed in E. coli BL21(DE3) pRIL, untagged, heat-treated and desalted; alpha2beta2 ~140 kDa; The same primer pair is printed for PF1838 and PF1837 (probable misprint)
- Km [4]: 820 ± 407 µM
- kcat/Km [4]: 120000 M⁻¹ s⁻¹
- Km [5]: 2730 ± 1080 µM
- kcat/Km [5]: 83000 M⁻¹ s⁻¹
- Km [6]: 620 ± 1.0 µM
- kcat/Km [6]: 112000 M⁻¹ s⁻¹
